We go through five molecules from paper PMC11109203 (2024).

B1: FITC labeled Clr3 (enzyme)
chain: MLASNSDGASTSVKPSDDAVNTVTPWSILLTNNKPMSGSENTLNNESHEMSQILKKSGLCYDPRMRFHATLSEVDDHPEDPRRVLRVFEAIKKAGYVSNVPSPSDVFLRIPAREATLEELLQVHSQEMYDRVTNTEKMSHEDLANLEKISDSLYYNNESAFCARLACGSAIETCTAVVTGQVKNAFAVVRPPGHHAEPHKPGGFCLFNNVSVTARSMLQRFPDKIKRVLIVDWDIHHGNGTQMAFYDDPNVLYVSLHRYENGRFYPGTNYGCAENCGEGPGLGRTVNIPWSCAGMGDGDYIYAFQRVVMPVAYEFDPDLVIVSCGFDAAAGDHIGQFLLTPAAYAHMTQMLMGLADGKVFISLEGGYNLDSISTSALAVAQSLLGIPPGRLHTTYACPQAVATINHVTKIQSQYWRCMRPKHFDANPKDAHVDRLHDVIRTYQAKKLFEDWKITNMPILRDSVSNVFNNQVLCSSNFFQKDNLLVIVHESPRVLGNGTSETNVLNLNDSLLVDPVSLYVEWAMQQDWGLIDINIPEVVTDGENAPVDILSEVKELCLYVWDNYVELSISKNIFFIGGGKAVHGLVNLASSRNVSDRVKCMVNFLGTEPLVGLKTASEEDLPTWYYRHSLVFVSSSNECWKKAKRAKRRYGRLMQSEHTETSDMMEQHYRAVTQYLLHLLQKARPTSQ
modifications: FITC label

One assay deals with Sad1_(1-169)-5R (S. pombe, UniProt Q09825 1-169, D114R | E117R | F118R | E121R | E122R). Put plainly: MST; mixture of Sad1-5R and H2AB.
The target in assay [1] is Sad1_(1-169)-H2AB complex (S. pombe, UniProt Q09825 1-169; P04913 32-126; P04909 15-108). Put plainly: MST; mixture of Sad1 and H2AB.
In a further assay the target is H2AB with H2A R79E (S. pombe, UniProt P04913 32-126; P04909 15-108, R79E). Kind of assay: ITC. Background: ITC needs no label: the signal is the heat of the interaction.
Assay [2] concerns the target S. pombe H2AB fusion protein (H2B_(32-126)-H2A_(15-108)) (S. pombe, UniProt P04913 32-126; P04909 15-108). Kind of assay: ITC.
A further assay has as its target H2AB with H2B Y42R (S. pombe, UniProt P04913 32-126; P04909 15-108, Y42R). Kind of assay: ITC.
For the assay “FITC labeled Clr3”, the target named is B1. Put plainly: MST.

By Kd is commonly meant the free concentration of one partner at which half of the binding sites on the other are occupied at equilibrium, for simple one-to-one binding. On to B1, for which the values for the Kd (with Sad1_(1-169)-5R; in assay [1]) were 47.2 µM and 10.3 µM, respectively.

B2: Sad1_(60-169) (domain or fragment)
chain: ESITPKQRFPAPNFEQAYHSNIRYEQEESDNEEFENVVKNGHEASTNVFYESDGDDEEFVNEEYENSIDEESDDEGYSLNEDTTATNASFRYPMNQRSTRKSQFYSSKFK
In the case of B2, the Kd with H2AB with H2A R79E worked out at 90.1 µM; in assay [2], 9.1 µM; with H2AB with H2B Y42R, 44.8 µM.

B3: Sad1_(60-169) with charge-reverse mutations of D114 and E117 (domain or fragment)
chain: ESITPKQRFPAPNFEQAYHSNIRYEQEESDNEEFENVVKNGHEASTNVFYESDGRDERFVNEEYENSIDEESDDEGYSLNEDTTATNASFRYPMNQRSTRKSQFYSSKFK
In the case of B3, the equilibrium dissociation constant (Kd) in assay [2] stood at 73.5 µM.

B4: Sad1_(60-169) F118R (domain or fragment)
chain: ESITPKQRFPAPNFEQAYHSNIRYEQEESDNEEFENVVKNGHEASTNVFYESDGDDEERVNEEYENSIDEESDDEGYSLNEDTTATNASFRYPMNQRSTRKSQFYSSKFK
Turning to B4, in assay [2], the Kd is more than 200 µM.

B5: Sad1_(1-169) (domain or fragment)
chain: MFTNTPVGGKRERQNGAHPAWSTLGANSAQIHQNTADLASKMHKLRYTKIRSPPTRVSIESITPKQRFPAPNFEQAYHSNIRYEQEESDNEEFENVVKNGHEASTNVFYESDGDDEEFVNEEYENSIDEESDDEGYSLNEDTTATNASFRYPMNQRSTRKSQFYSSKFK
As to B5, in the assay with FITC labeled Clr3, the affinity, expressed as Kd, was 42.9 µM.
